Test results reported in the emibetuzumab library of Makowski et al. (2022).

B1: VH:VL chains; a variant is named by its letters at X, in order (parent)
chain 1: QVQLVQSGAEVKKPGASVKVSCKASGYTFTDYXMHWVRQAPGQGLEWMGXVNPNXXXTTYNQKFEGRVTMTTDTSTSTAYMELRSLRSDDTAVYYCARXNXLDXWGQGTTVTVSS
chain 2: DIQMTQSPSSLSASVGDRVTITCSVSSSVSSIYLHWYQQKPGKAPKLLIYSTSNLASGVPSRFSGSGSGTDFTLTISSLQPEDFATYYCQVYSGYPLTFGGGTKVEIK

Variants of: B1
Assay: yeast display scFab, FACS + sequencing
How it was run: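 Non-specific binding was called from deep sequencing of sorted yeast cells displaying a heavy-chain CDR mutant scFab library. Cells labelled with anti-Myc and biotinylated ovalbumin (260 μg/mL in PBSB, 3 h, room temperature) or soluble membrane proteins (130 μg/mL, 20 min on ice) were FACS-sorted, collecting the top 25% and bottom 10% of binders from two replicates. A sequence was positive when present in ≥3 of 4 pooled positive samples and absent from all negatives, and negative under the converse rule.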

Variant | non-specific binding call
YRRRSAGA | binds
YRTKASLD | binds
DRTGDSSS | no binding
FRTRDSLD | binds
YRTRDSAS | no binding
SRTGSDVD | no binding
FRTGDSVD | no binding
YRTGDSGD | no binding
ATATADWA | no binding
YRTGAASD | binds
YRRRSSSS | binds
YRTRGALS | binds
YRTRGALA | binds
STAESDLD | no binding
YRTRSSAV | binds
FRRTDFVA | binds
VRTRGAVD | binds
FRTEGSAD | binds
YRRRSSVD | binds
YRTRDVGF | binds
YRTGASSD | binds
YRTAGSGV | binds
YRTAGSGD | binds
YTEEAAVD | no binding

Variant | non-specific binding call
FRTRDALD | binds
YTAGSALV | no binding
VRTGDSLD | no binding
VRTRGSWD | binds
YRRRGYWA | binds
YRRRGYSS | binds
YRRRGYSD | binds
FRTKDDVY chain 1 E46K | binds
DTAGDAAV | no binding
YRTAGSSD | binds
FRTGDDLV | no binding
YTAAADLV | binds
VRTKAVAY | binds
YRRRSAVA | binds
VRRTDFVA | binds
YRTKGSGV | binds
ARTRTAWY | binds
YRTGGSSV | binds
VRTEDSGD | no binding
VRTRGDGA | binds
VTATADWA | no binding
VTAGDDGS | no binding
VTAGDDGV | no binding
DRTGDDVA | no binding

Variant | non-specific binding call
DRTGDDVY | no binding
VRRTSAAS | binds
STAESSSF | no binding
YRTADVGV | binds
YTATGFAV | binds
STEASYLS | no binding
VRTRASVD | binds
YRTADDWV | binds
YRTRDSGV | binds
YRTRAAWD | binds
DRTTNAGD | no binding
VTAGDAGD | no binding
FRTADVGV | binds
VRTEDDAS | no binding
YRRRGVSA | binds
FRTRDVGF | binds
SRTRDAGD | no binding
STAEDDWV | no binding
YRTGAAAD | binds
VRTKDFSY | no binding
FRRTDFVA chain 1 C22Y | binds
FRTGGAVA | binds
ATAGSASD | no binding
FRTGDDGA | no binding

Variant | non-specific binding call
YTARDVGV | binds
YRTRSAGV | binds
YRTRSAGD | binds
YRTRSAGA | binds
FRTGDAVF | no binding
FRTGDAVS | no binding
VRTAASGD | binds
FRTKGSGD | binds
ARTKGSGY | binds
VRTKADAV | no binding
FRTGDSAS | no binding
FRTGDAWV | no binding
VRTRSSLD | binds
YRRRGVGV | binds
YRRRGVGY | binds
YRRRGVGS | binds
VRTEDFGV | no binding
YRTRGASD | binds
VRTRGSGV | binds
YRTGDSSA | no binding
YRTRDAWV | binds
VRTADVGV | binds
YRRRGVWA | binds
DTAESDLD | no binding

Variant | non-specific binding call
VRTADDGA | no binding
YRTGGSGA | binds
YRTGGSGD | binds
FRTKGAWV | binds
YTAGSDWY | no binding
FRTRSSGV | binds
YRTRGAGV | binds
YRTRGAGA | binds
YRTRGAGD | binds
FRTRDFLV | binds
SRTRGFVV | binds
YRTRDDVY | no binding
YRTRDDVV | no binding
FRTGDDAV | no binding
FRTGDDAA | no binding
YRRRGYLV | binds
FRTKAAVY | binds
VRTEDALD | no binding
VRTEDALV | no binding
FRTRGAAA | binds
FRTRDSAA | binds
YRTRGSLY | binds
YRTGDDVF | no binding
VRTRGALS | binds

Variant | non-specific binding call
FRTGDSLV | no binding
VTAGDDAV | no binding
FRTRGAVV | binds
YRTGGAGD | no binding
ARRTDVAD | binds
YRTGAAGV | binds
VTAGSDAV | no binding
FRTRGSSD | binds
VRTRAAVD | binds
YRTRGAVD | binds
YRTRGYAV | binds
YRRRGYVD | binds
YRRRGYVF | binds
YRRRGYVV | binds
YRRRGYVA | binds
YRTRGAAA | binds
STATADVA | no binding
FRTRGVGA | binds
FRTKGAAD | binds
YTARGSAA | binds
STATADWV | no binding
YTAGSDGV | no binding
YTAGSDGA | no binding
YRTEDVGA | binds

Variant | non-specific binding call
YRTAGAGV | binds
YRTAGAGD | binds
VRTEDAWV | no binding
VRTEDAWA | no binding
YRTGGSLD | binds
YRRRTAAV | binds
FRTGDDWV | no binding
VRTRSFGA | binds
YRTRDDLY | no binding
VTAEDFGV | no binding
VRTEDDLV | no binding
VRTEDDWY | no binding
VRTEDDWS | no binding
VRTEDDWF | no binding
VRTEDDWV | no binding
VRTRSSGV | binds
YRTGDSAA | binds
VRTGDSAY | no binding
DTATADWA | no binding
YRTGTAGF | binds
SRTRGFGS | binds
YRTRGAWA | binds
YRTRGAWF | binds
STAESDVA | no binding

Variant | non-specific binding call
DTAEDFGV | no binding
STAEDFVV | no binding
ATAGSDGV | no binding
VRTGGAAA | binds
FRTRDSSS | binds
YRTKGAAD | binds
VTAGDSAD | no binding
YRRRGVVV | binds
YRTRSSGA | binds
YRTAGAAD | binds
VRTEDSWA | no binding
VRTEDSWS | no binding
YTEAADGA | no binding
YRTRSSVS | binds
FRTGDSWD | no binding
FTAGGAAD | binds
VRTEDASF | no binding
YRTRSSWD | binds
STAGSASD | no binding
FRTGSAWF | binds
VRTGAVGD | binds
STAESDGA | no binding
FRTKSDLA | no binding
YRTRSAVY | binds

Variant | non-specific binding call
YRTRSAVV | binds
FRTEGSGY | binds
YTAGSDVA | no binding
YRTGGAWD | binds
VRTRGYLA | binds
YRTRDALV | no binding
FRTGGSAD | binds
VRRRSSLA | binds
YRTRSAWD | binds
DTAGDAVV | no binding
YTARGVSF | binds
YRTEGAVA | binds
YRTRDAGY | no binding
YRTRDSVA | no binding
YRTRDSVD | binds
FRTRDAGD | no binding
YRRRGYGD | binds
YRTRGSGF | binds
YRTRGSGY | binds
FTARSAGF | binds
YRTGAALS | binds
YRTRSAAA | binds
YRTRSAAV | binds
FRTRDAAA | binds

Variant | non-specific binding call
FRTRSSLA | binds
YRTRDSLD | no binding
VTAGDDVY | no binding
VTAGDDVA | no binding
YRTKAAVD | binds
ATAGSAAV | no binding
FRTGDAGA | no binding
VRTGDDGV | no binding
VTAESSSF | no binding
FRTGDDSF | no binding
VRTEDSSV | no binding
YRTKGAVY | binds
VRTEDSLV | no binding
VRTEDSLD | no binding
FRTRDSGY chain 1 V68I | binds
VRTRGSSS | binds
DTAESSSF | no binding
YRRRSSLA | binds
YRRRGYAA | binds
YRTRGSWD | binds
VRTEDDVD | no binding
VRTEDDVY | no binding
VRTEDDVA | no binding
VRTEDDVF | no binding
